This is an account of results in paper PMC5709467, “Solution structure and interaction with copper in vitro and in living cells of the first BIR domain of XIAP” (Scientific Reports, 2017).

As a reminder, the stoichiometry N is a count of units in the complex or per binding partner.

For data set [1], the target named is D71N/R72E mutant of BIR1 (1-105) of XIAP (human) (UniProt P98170). Nature of the data set: SEC; oxidised protein (C12 disulfide), analytical gel filtration on Superdex 75 10/200 GL, 20 mM Bis-Tris pH 6.5. (In general: SEC sorts molecules by how far they enter the pores of the column.)
Data set [2] shares this target. Put plainly: MALDI-TOF mass spectrometry; oxidised D71N/R72E BIR1; covalent (disulfide-linked) dimer; compared with a sample treated with DTT.
Data set [3] concerns the molecule itself. Nature of the data set: NMR 15N relaxation (R2/R1, rotational correlation time); reduced protein, about 0.3 mM, 20 mM Bis-Tris pH 6.5, 298 K.

Take “D71N/R72E mutant of BIR1 (1-105) of XIAP (from UniProt P98170 1-105) (domain or fragment)”: the stoichiometry N in data set [1] and in data set [2] was 2 each time.

B1: Wild-type BIR1 (1-105 aa), first BIR domain of XIAP (domain or fragment, human, UniProt P98170 1-105, looked up)
chain: MTFNSFEGSKTCVPADINKEEEFVEEFNRLKTFANFPSGSPVSASTLARAGFLYTGEGDTVRCFSCHAAVDRWQYGDSAVGRHRKVSPNCRFINGFYLENSATQS
notes: 15N- or 15N,13C-labelled for NMR; cloned into pET-3a; In the oxidised state C12 of the two subunits form a disulfide bond; also called WT BIR1
As to B1, the “stoichiometry N” value in data set [3] amounted to 2.
